Laboratory results from PMC2944003.

Molecular target: human complement receptor 3 (CR3) on CR3-transfected CHO cells (CHO/CR3) (human) (UniProt P11215)
Test: flow cytometry on cells

fH SCRs 18–20 fused to the Fc fragment of murine IgG2a (Fc fusion), sequence (P08603 19-1231): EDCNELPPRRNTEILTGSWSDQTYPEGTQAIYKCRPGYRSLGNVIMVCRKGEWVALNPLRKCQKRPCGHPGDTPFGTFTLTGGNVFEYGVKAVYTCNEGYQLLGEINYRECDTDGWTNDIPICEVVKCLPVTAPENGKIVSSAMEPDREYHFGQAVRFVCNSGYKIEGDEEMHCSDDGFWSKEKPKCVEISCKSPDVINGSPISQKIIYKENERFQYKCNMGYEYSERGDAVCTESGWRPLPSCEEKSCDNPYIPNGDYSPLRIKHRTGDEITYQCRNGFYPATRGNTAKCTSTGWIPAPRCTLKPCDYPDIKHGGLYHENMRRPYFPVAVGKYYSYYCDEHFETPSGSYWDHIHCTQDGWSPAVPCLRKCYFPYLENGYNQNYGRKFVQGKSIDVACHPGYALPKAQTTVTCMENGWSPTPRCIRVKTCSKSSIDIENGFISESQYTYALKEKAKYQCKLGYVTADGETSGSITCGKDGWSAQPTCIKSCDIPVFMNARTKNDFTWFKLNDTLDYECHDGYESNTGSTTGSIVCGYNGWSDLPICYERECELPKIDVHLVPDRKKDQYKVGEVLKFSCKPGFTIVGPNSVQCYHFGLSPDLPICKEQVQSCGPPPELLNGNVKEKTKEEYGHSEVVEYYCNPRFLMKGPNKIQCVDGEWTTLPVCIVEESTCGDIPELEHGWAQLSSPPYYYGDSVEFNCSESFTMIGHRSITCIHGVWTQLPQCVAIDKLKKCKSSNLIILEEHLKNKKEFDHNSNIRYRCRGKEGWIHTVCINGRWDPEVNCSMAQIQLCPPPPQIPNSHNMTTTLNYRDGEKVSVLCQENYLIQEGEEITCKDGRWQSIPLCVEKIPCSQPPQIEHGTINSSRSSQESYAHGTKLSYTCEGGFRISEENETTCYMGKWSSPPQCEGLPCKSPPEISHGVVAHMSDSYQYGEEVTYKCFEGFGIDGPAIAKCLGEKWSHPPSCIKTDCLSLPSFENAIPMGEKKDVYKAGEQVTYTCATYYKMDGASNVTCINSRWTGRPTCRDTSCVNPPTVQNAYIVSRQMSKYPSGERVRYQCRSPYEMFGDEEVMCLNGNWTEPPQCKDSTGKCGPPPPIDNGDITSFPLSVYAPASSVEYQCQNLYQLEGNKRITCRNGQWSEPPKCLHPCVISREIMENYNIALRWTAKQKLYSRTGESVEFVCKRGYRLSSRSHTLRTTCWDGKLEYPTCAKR
fH SCRs 6–10 fused to the Fc fragment of murine IgG2a (Fc fusion), sequence (P08603 19-1231): as above
fH SCRs 16–20 fused to the Fc fragment of murine IgG2a (Fc fusion), sequence (P08603 19-1231): as above

| Substance | fold increase in fluorescence over control levels |
| --- | --- |
| fH SCRs 16–20 fused to the Fc fragment of murine IgG2a (Fc fusion) | 15 fold |
| fH SCRs 18–20 fused to the Fc fragment of murine IgG2a (Fc fusion) | 30 fold |
| fH SCRs 6–10 fused to the Fc fragment of murine IgG2a (Fc fusion) | 3 fold |
